How the values were obtained:
[1] = target: T1, BCL-xL/ABT-737 complex: biotinylated BCL-xL (residues 2-215) in the presence of 1 µM ABT-737 (human, UniProt Q07817 2-215, biotin on the N-terminal AviTag; small molecule ABT-737 bound non-covalently); assay: ELISA, biotinylated BCL-xL captured on NeutrAvidin, Fab titrated with 1 µM ABT-737, anti-Fab-HRP detection [continued]
T1 construct: Same protein as m1; not shown: N-terminal tags (pMCSG7 vector tag used for Ni-NTA, AviTag, TEV cut site)

[2] = target: T2, biotinylated C-terminally truncated BCL-xL (residues 2-215), no ligand (DMSO vehicle) (human, UniProt Q07817 2-215, biotin on the N-terminal AviTag); assay: ELISA, biotinylated BCL-xL captured on NeutrAvidin, Fab titrated with 0.05% DMSO (no ABT-737), anti-Fab-HRP detection [continued]
T2 construct: also called apo BCL-xL; not shown: N-terminal tags (pMCSG7 vector tag used for Ni-NTA, AviTag, TEV cut site)

[3] = target: T1, BCL-xL/ABT-737 complex: biotinylated …; assay: ELISA, biotinylated BCL-xL captured on NeutrAvidin, Fab titrated with 1 µM ABT-737, anti-Fab-HRP detection
[4] = target: T3, BCL-xL/Bak-peptide complex: biotinylated BCL-xL (residues 2-215) in the presence of 5 µM Bak peptide (human, UniProt Q07817 2-215, biotin on the N-terminal AviTag); assay: biolayer interferometry, immobilized BCL-xL, 100 nM Fab with 5 µM Bak peptide
T3 construct: Bak peptide bought from Anaspec (AS-61616); not shown: N-terminal tags (pMCSG7 vector tag used for Ni-NTA, AviTag, TEV cut site)

[5] = target: biotinylated C-terminally truncated BCL-xL (residues 2-215), no ligand (DMSO vehicle) (human) (UniProt Q07817); assay: BLI (Octet), biotinylated BCL-xL on streptavidin sensor, Fab as analyte, no ABT-737
Chain of biotinylated C-terminally truncated BCL-xL (residues 2-215), no ligand (DMSO vehicle) (human) (Q07817 2-215): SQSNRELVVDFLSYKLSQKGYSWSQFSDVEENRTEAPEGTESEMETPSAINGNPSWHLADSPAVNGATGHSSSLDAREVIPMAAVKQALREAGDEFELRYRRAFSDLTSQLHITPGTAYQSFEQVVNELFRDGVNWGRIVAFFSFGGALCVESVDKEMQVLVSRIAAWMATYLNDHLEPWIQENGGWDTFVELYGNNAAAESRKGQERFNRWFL

T1 sequence (Q07817 2-215, one chain of several): as the sequence (Q07817 2-215) above
T3 sequence (Q07817 2-215, one chain of several): as the sequence (Q07817 2-215) above
T2 sequence (Q07817 2-215): as above

Binder | binding result [1] | binding result [2] | EC50 (read off the curve) [3] [nM] | binding result [4] | Kd [5] [nM]
Fab AZ5 (Fab, Purified Fab; graft limits inferred) heavy: EISEVQLVESGGGLVQPGGSLRLSCAASGFNLYYYYIHWVRQAPGKGLEWVASIYPSYGSTYYADSVKGRFTISADTSKNTAYLQMNSLRAEDTAVYYCARASVWFGWYVPSAMDYWGQGTLVTVSSASTKGPSVFPLAPSSKSTSGGTAALGCLVKDYFPEPVTVSWNSGALTSGVHTFPAVLQSSGLYSLSSVVTVPSSSLGTQTYICNVNHKPSNTKVDKKVEPKSCDKTHTGGSHHHHHH light: SDIQMTQSPSSLSASVGDRVTITCRASQSVSSAVAWYQQKPGKAPKLLIYSASSLYSGVPSRFSGSRSGTDFTLTISSLQPEDFATYYCQQWPGWYPITFGQGTKVEIKRTVAAPSVFIFPPSDSQLKSGTASVVCLLNNFYPREAKVQWKVDNALQSGNSQESVTEQDSKDSTYSLSSTLTLSKADYEKHKVYACEVTHQGLSSPVTKSFNRGECGGSDYKDDDDK | binds | binds | – | – | –
Fab AZ3 (Fab, Purified Fab; graft limits inferred) heavy: EISEVQLVESGGGLVQPGGSLRLSCAASGFNIYYSYMHWVRQAPGKGLEWVASISPYSSYTSYADSVKGRFTISADTSKNTAYLQMNSLRAEDTAVYYCARYGYSYYYYGALDYWGQGTLVTVSSASTKGPSVFPLAPSSKSTSGGTAALGCLVKDYFPEPVTVSWNSGALTSGVHTFPAVLQSSGLYSLSSVVTVPSSSLGTQTYICNVNHKPSNTKVDKKVEPKSCDKTHTGGSHHHHHH light: SDIQMTQSPSSLSASVGDRVTITCRASQSVSSAVAWYQQKPGKAPKLLIYSASSLYSGVPSRFSGSRSGTDFTLTISSLQPEDFATYYCQQGWSGPWLITFGQGTKVEIKRTVAAPSVFIFPPSDSQLKSGTASVVCLLNNFYPREAKVQWKVDNALQSGNSQESVTEQDSKDSTYSLSSTLTLSKADYEKHKVYACEVTHQGLSSPVTKSFNRGECGGSDYKDDDDK | – | – | ~7 | no binding (tested: 100 nM) | > 5000
Fab AZ2 (Fab, Purified Fab; graft limits inferred) heavy: EISEVQLVESGGGLVQPGGSLRLSCAASGFNIYSYYMHWVRQAPGKGLEWVAYISPYYSYTSYADSVKGRFTISADTSKNTAYLQMNSLRAEDTAVYYCARGYPWYGMDYWGQGTLVTVSSASTKGPSVFPLAPSSKSTSGGTAALGCLVKDYFPEPVTVSWNSGALTSGVHTFPAVLQSSGLYSLSSVVTVPSSSLGTQTYICNVNHKPSNTKVDKKVEPKSCDKTHTGGSHHHHHH light: SDIQMTQSPSSLSASVGDRVTITCRASQSVSSAVAWYQQKPGKAPKLLIYSASSLYSGVPSRFSGSRSGTDFTLTISSLQPEDFATYYCQQVSWAYPYLITFGQGTKVEIKRTVAAPSVFIFPPSDSQLKSGTASVVCLLNNFYPREAKVQWKVDNALQSGNSQESVTEQDSKDSTYSLSSTLTLSKADYEKHKVYACEVTHQGLSSPVTKSFNRGECGGSDYKDDDDK | – | – | ~2 | no binding (tested: 100 nM) | > 5000
Fab AZ6 (Fab, Purified Fab; graft limits inferred) heavy: EISEVQLVESGGGLVQPGGSLRLSCAASGFNLSYSYIHWVRQAPGKGLEWVASIYSSSGSTYYADSVKGRFTISADTSKNTAYLQMNSLRAEDTAVYYCARGSHAHGWAWFWYGMDYWGQGTLVTVSSASTKGPSVFPLAPSSKSTSGGTAALGCLVKDYFPEPVTVSWNSGALTSGVHTFPAVLQSSGLYSLSSVVTVPSSSLGTQTYICNVNHKPSNTKVDKKVEPKSCDKTHTGGSHHHHHH light: SDIQMTQSPSSLSASVGDRVTITCRASQSVSSAVAWYQQKPGKAPKLLIYSASSLYSGVPSRFSGSRSGTDFTLTISSLQPEDFATYYCQQSSYSLITFGQGTKVEIKRTVAAPSVFIFPPSDSQLKSGTASVVCLLNNFYPREAKVQWKVDNALQSGNSQESVTEQDSKDSTYSLSSTLTLSKADYEKHKVYACEVTHQGLSSPVTKSFNRGECGGSDYKDDDDK | binds | binds | – | – | –

More lines, now with the values ahead:

binding result [1] | binding result [2] | EC50 (read off the curve) [3] [nM] | binding result [4] | Kd [5] [nM] | Binder
– | – | – | no binding (tested: 100 nM) | > 5000 | Fab AZ1 (Fab, Purified Fab from E. coli; The scaffold tags are kept) heavy: EISEVQLVESGGGLVQPGGSLRLSCAASGFNLSYSSMHWVRQAPGKGLEWVASISPYSSYTSYADSVKGRFTISADTSKNTAYLQMNSLRAEDTAVYYCARGWVGMDYWGQGTLVTVSSASTKGPSVFPLAPSSKSTSGGTAALGCLVKDYFPEPVTVSWNSGALTSGVHTFPAVLQSSGLYSLSSVVTVPSSSLGTQTYICNVNHKPSNTKVDKKVEPKSCDKTHTGGSHHHHHH light: SDIQMTQSPSSLSASVGDRVTITCRASQSVSSAVAWYQQKPGKAPKLLIYSASSLYSGVPSRFSGSRSGTDFTLTISSLQPEDFATYYCQQYYWGFPSLFTFGQGTKVEIKRTVAAPSVFIFPPSDSQLKSGTASVVCLLNNFYPREAKVQWKVDNALQSGNSQESVTEQDSKDSTYSLSSTLTLSKADYEKHKVYACEVTHQGLSSPVTKSFNRGECGGSDYKDDDDK
binds | binds | – | – | – | Fab AZ7 (Fab, Purified Fab; graft limits inferred) heavy: EISEVQLVESGGGLVQPGGSLRLSCAASGFNLSSYSMHWVRQAPGKGLEWVASIYSYYGSTSYADSVKGRFTISADTSKNTAYLQMNSLRAEDTAVYYCARYSPWVYYPYYGWYSGMDYWGQGTLVTVSSASTKGPSVFPLAPSSKSTSGGTAALGCLVKDYFPEPVTVSWNSGALTSGVHTFPAVLQSSGLYSLSSVVTVPSSSLGTQTYICNVNHKPSNTKVDKKVEPKSCDKTHTGGSHHHHHH light: SDIQMTQSPSSLSASVGDRVTITCRASQSVSSAVAWYQQKPGKAPKLLIYSASSLYSGVPSRFSGSRSGTDFTLTISSLQPEDFATYYCQQSSYSLITFGQGTKVEIKRTVAAPSVFIFPPSDSQLKSGTASVVCLLNNFYPREAKVQWKVDNALQSGNSQESVTEQDSKDSTYSLSSTLTLSKADYEKHKVYACEVTHQGLSSPVTKSFNRGECGGSDYKDDDDK

— US20200255519A1 (University of California, published 2020)
